Laboratory results as given in publication PMC5526573, “Bacillus sp. JR3 esterase LipJ: A new mesophilic enzyme showing traces of a thermophilic past” (PLoS ONE, 2017).

System: CCCC(=O)Oc1ccc([N+](=O)[O-])cc1
Assay: purified protein
Conditions: 37 °C, semi-purified His-tagged enzyme, methods state optimal assay conditions (pH 7)

For LipJ (Bacillus sp. (in: firmicutes)), the Km was 1.7 mM.
